This is an account of results in publication PMC9279936.

Series [1] deals with influenza A virus hemagglutinin (on whole virus particles) (Influenza A virus (strain not in the material)). Description: BLI. The following applies: BLI: 10 mM Tris-HCl pH 7.5, 140 mM NaCl, 10 mM KCl ([…], temperature not stated.
For series [2] the test system is unchanged. Briefly: BLI. Particulars: BLI: 10 mM Tris-HCl pH 7.5, 140 mM NaCl, 10 mM KCl ([…], temperature not stated; cited from earlier work.

By Kd is commonly meant the equilibrium constant for the complex coming apart. “TTGGGGTTATTTTGGGAGGGCGGGGGTT [RHA0385 (biotinylated)]”: the results for the dissociation constant (Kd) in series [1] and in series [2] were 1.1 nM and 0.05 nM, respectively.
